In assay [1] the target is 抗HPV16E7蛋白单抗69A6. Description: indirect competition ELISA, peptide at 1μmol/L competes with coated HPV16E7 whole protein for 69A6.
Assay [2] addresses 抗HPV16E7蛋白单抗69A6. Description: indirect competition ELISA, peptide at 10μmol/L competes with coated HPV16E7 whole protein for 69A6.

On to HVDIRTLEDLLMGTLGIV [重叠肽HPV16E7 73-90], for which the 抑制率 in the assay with 抗HPV16E7蛋白单抗69A6 [1] is 56.2%; with 抗HPV16E7蛋白单抗69A6 [2] it was 93.5%.

Take LCVQSTHVDIRTLEDLLM [重叠肽HPV16E7 67-84]: the 抑制率 with 抗HPV16E7蛋白单抗69A6 [1] is 47.3%; in the assay with 抗HPV16E7蛋白单抗69A6 [2], 91.6%.

As to GTLGIVCPICSQKP [重叠肽HPV16E7 85-98], the 抑制率 in the assay with 抗HPV16E7蛋白单抗69A6 [1] was 48.6%; with 抗HPV16E7蛋白单抗69A6 [2] it was 92%.

Turning to RAHYNIVTFCCKCDSTLR [重叠肽HPV16E7 49-66], the 抑制率 amounted to 15.6% with 抗HPV16E7蛋白单抗69A6 [1] and 16.3% with 抗HPV16E7蛋白单抗69A6 [2].

The values above are taken from CN111333719A.
